Ends that are not written are not given here.
Key:
[1] = biological target: Knl1c:Mis12c^Mtw1c complex K^HB-RWDM^2E (full-length Dsn1 with S240E and S250E phosphomimetic mutations), P53148;Q04431;P40568;P39731;P47149;Q12143; assay: ITC; conditions: Syringe: CENP-U^Ame1_1-33-Mut (0.32 mM); Cell: K^HB-RWDM^2E (0.016 mM); parent: 1.35 ± 0.08
[2] = biological target: KlMis12c^Mtw1c with phosphomimetic mutations of Dsn1^AI; conditions: fluorescence polarization; K. lactis complex with phosphomimetic mutations (Asp mutants of S213/S223); ref Dimitrova et al., 2016; cited from earlier work
From the text: We further investigated the effect of Dsn1^AI on the interaction between K^HB-RWDM (which has wild-type unphosphorylated Dsn1^AI) and a peptide modeled on the N-terminal 38 residues of CENP-C^Mif2 (CENP-C^Mif2_1–38). […] Also similar to Dimitrova et al. (2016), using ITC we found no binding of CENP-UAme1_1-33 to the unphosphorylated KM. […] We cannot accoun ... || (+ 2 further places)

[3] = system: KlMis12c^Mtw1c containing an intact Dsn1^AI; conditions: lower concentrations (50 nM) for CENP-U^Ame1, unphosphorylated complex, ref Dimitrova et al., 2016; cited from earlier work
[4] = system: T1, K^HB-RWDM^Dsn1Δ257 (Knl1c:Mis12c^Mtw1c complex, Knl1^Spc105 residues 1–444 and Dsn1 residues 1–257 deleted); assay: ITC, Dsn1 peptide titrated into K^HB-RWDM^Dsn1Δ257; type: binding, S. cerevisiae
T1 construct: made in house; host or cells: High-5 insect cells (baculovirus)
T1 sequence (Q04431 whole entry, stated change not applied, one chain of several, further chain, the tested form may be a part): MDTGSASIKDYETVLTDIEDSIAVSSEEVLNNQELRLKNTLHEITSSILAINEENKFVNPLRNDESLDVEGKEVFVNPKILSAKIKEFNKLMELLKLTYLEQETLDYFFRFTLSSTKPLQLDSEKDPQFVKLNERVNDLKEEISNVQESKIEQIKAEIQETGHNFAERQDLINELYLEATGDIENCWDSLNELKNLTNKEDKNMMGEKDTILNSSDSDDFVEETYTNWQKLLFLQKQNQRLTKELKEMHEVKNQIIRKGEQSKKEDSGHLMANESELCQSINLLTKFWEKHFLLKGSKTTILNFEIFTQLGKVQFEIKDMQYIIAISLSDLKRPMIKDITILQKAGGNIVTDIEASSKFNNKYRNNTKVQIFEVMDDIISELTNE
T1 sequence (P53148 445-917, stated change not applied, one chain of several, further chain): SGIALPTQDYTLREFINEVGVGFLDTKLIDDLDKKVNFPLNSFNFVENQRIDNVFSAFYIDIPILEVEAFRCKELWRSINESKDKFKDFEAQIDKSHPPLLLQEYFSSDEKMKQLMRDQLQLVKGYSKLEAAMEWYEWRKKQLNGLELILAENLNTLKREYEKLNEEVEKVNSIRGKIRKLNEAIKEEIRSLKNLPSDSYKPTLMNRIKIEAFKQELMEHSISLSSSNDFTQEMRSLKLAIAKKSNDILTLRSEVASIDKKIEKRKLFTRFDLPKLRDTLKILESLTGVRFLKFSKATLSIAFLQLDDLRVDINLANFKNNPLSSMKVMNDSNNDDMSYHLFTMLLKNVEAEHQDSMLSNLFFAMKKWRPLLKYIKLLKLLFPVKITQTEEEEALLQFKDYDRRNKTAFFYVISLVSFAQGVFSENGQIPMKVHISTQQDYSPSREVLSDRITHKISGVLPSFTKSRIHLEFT
Experimental: Dsn1^228–254 and Dsn1^228–254,S240E,S250E peptides were synthesized by Alta BioScience with N-terminal acetylation and C-terminal GSAW extension and amidation. The final sequence of Dsn1^228–254 was […], and Dsn1^228–254,S240E,S250E was […]. All protein complexes and peptides used in a given experiment were dialyzed for a minimum of 16 h and/or buffer-exchanged by size-exclusion chromatography into the same batch of ITC buffer (25 mM HEPES, pH 7.5, 100 mM NaCl, 1 mM TCEP). All experiments were performed using an Auto-iTC200 instrument (Malvern Instruments) at 25°C. In each experiment, 360 μl of protein complex was pipetted into the calorimeter cell. The protein complex loaded into the calorimeter cell contained Knl1c:Mis12c^Mtw1c with Knl1^Spc105_HB-RWD and Dsn1^Δ1–257 and either wild-type Mis12^Mtw1 (K^HB-RWDM ^Dsn1Δ257) or Mis12^Mtw1_E69A,E73A,E77A mutant (K^HB-RWDM ^Dsn1Δ257_Mis12-3A). Wild-type constructs of all other Knl1c and Mis12c^Mtw1c subunits were included. Titration of either the Dsn1^228–254 or Dsn1^228-254,S240E,S250E peptide into the cell was then performed by an initial injection of 0.5 μl, followed by 19 further injections of 2.0 μl each. […] Titrations were performed in duplicate or triplicate, and reported KD and n values were calculated as an average from all replicate results.

[5] = biological target: T2, Knl1c:Mis12c^Mtw1c complex K^HB-RWDM^2E (full-length Dsn1 with S240E and S250E phosphomimetic mutations) (S. cerevisiae, UniProt P53148 445-917; Q04431 1-385; P40568 1-576; P39731 1-289; P47149 1-201; Q12143 …, S240E | S250E); assay: ITC; peptide titrated into the complex in the cell; 20°C; 25 mM HEPES pH 7.5, 100 mM NaCl, 0.5 mM TCEP; conditions: both partners purified
T2 construct: Knl1^Spc105_HB-RWD: Knl1^Spc105, S. cerevisiae S288c, residues 445-917; ZWINT^Kre28, S. cerevisiae S288c; no truncation stated; Dsn1^S240E,S250E: full-length Dsn1, S. cerevisiae S288c, with phosphomimetic mutations; Mis12^Mtw1, S. cerevisiae S288c; Nnf1, S. cerevisiae S288c; Nsl1, S. cerevisiae S288c; also called KM^2E; K^HB-RWDM^S240E,S250E; source: High-5 insect cells (baculovirus), purified …
T2 sequence (P53148 445-917, chain 1 of 2): as the sequence (P53148 445-917, stated change not applied, one chain of several, further chain) above
T2 sequence (Q04431 whole entry, chain 2 of 2, the tested form may be a part): as the sequence (Q04431 whole entry, stated change not applied, one chain of several, further chain, the tested form may be a part) above

[6] = biological target: T3, S. cerevisiae Ndc80 complex (Ndc80, Nuf2, Spc24, Spc25) (S. cerevisiae, UniProt P40460 1-691; P33895 1-451; Q04477 1-213; P40014 1-221); assay: SEC; 4 μM Mis12c^Mtw1c (wild type or mutant) mixed with 4 μM Ndc80c in KMN buffer, 30 min on ice; Superose 6 3.2/300; fractions on SDS-PAGE; conditions: both partners purified
T3 construct: Ndc80, S. cerevisiae S288c; Nuf2, S. cerevisiae S288c; Spc24, S. cerevisiae S288c; Spc25, S. cerevisiae S288c; The Twin-Strep tag on Nuf2 is TEV cleavable; no cleavage is described; source: High-5 insect cells (two baculoviruses), purified (Strep-Tactin, Resource Q, SEC); copies: + + +
T3 sequence (P40460 whole entry, chain 1 of 4): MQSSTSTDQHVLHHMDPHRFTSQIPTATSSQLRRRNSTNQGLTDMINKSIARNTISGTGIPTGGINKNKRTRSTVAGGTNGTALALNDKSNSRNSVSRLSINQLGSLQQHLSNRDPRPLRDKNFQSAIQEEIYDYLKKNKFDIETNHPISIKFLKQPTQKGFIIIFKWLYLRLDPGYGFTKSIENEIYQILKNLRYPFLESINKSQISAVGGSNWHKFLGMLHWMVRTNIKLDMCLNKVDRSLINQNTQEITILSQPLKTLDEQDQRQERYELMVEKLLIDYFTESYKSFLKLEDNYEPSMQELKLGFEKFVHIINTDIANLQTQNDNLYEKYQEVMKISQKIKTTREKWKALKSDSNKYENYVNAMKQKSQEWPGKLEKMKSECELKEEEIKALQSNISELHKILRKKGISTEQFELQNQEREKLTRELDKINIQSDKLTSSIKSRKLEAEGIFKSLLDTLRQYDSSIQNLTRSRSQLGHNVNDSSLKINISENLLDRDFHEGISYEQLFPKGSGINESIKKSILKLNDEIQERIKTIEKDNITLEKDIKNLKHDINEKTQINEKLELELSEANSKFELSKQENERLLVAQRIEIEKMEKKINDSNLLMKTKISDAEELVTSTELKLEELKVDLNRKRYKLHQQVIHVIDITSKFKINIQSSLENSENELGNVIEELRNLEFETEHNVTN
T3 sequence (P33895 whole entry, chain 2 of 4): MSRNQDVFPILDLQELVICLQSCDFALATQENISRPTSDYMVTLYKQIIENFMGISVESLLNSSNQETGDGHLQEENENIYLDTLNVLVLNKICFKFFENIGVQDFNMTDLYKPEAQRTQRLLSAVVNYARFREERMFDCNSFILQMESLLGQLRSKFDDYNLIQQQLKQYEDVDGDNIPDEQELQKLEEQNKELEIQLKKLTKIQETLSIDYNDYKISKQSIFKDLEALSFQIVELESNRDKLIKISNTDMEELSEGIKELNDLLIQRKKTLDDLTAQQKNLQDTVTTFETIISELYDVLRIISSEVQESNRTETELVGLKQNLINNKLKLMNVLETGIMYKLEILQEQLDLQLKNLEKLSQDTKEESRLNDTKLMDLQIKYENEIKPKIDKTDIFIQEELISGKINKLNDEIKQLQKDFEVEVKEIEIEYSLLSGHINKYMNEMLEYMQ
T3 sequence (Q04477 whole entry, chain 3 of 4): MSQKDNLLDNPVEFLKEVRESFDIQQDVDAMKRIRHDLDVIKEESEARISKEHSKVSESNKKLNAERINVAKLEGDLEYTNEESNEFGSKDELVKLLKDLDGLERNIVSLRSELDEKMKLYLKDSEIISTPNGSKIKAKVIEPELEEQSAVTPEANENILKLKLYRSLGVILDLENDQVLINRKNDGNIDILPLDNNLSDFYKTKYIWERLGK
T3 sequence (P40014 whole entry, chain 4 of 4): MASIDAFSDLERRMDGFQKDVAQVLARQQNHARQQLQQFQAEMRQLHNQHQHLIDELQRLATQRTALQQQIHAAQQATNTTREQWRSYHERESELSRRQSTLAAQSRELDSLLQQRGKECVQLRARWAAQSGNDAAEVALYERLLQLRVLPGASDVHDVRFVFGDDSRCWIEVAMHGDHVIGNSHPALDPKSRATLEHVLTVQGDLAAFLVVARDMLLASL

## CENP-U^Ame1_1–33 peptide (residues 1–33 of CENP-U^Ame1) D25A; V27A; I28A; F29A; T31A
[1]
  other: N (ITC stoichiometry): 1.34

## K. lactis CENP-U^Ame1_1-25: residues 1–25 of K. lactis CENP-U^Ame1, reported by Dimitrova et al., 2016 (MDALKQRHLKLLYRQRGSASRTIDY; UniProt Q6CUE5 1-25, looked up, fragment)
[2]
  Kd: 1480 nM
[3]
  binding (fluorescence polarization): did not interact

## CENP-C^Mif2_1-41: CENP-C^Mif2 peptide (residues 1-41) reported by Dimitrova et al., 2016 (MDYMKLGLKSRKTGIDVKQDIPKDEYSMENIDDFFKDDETS; UniProt P35201 1-41, looked up, fragment)
[2]
  Kd: 1750 nM
[3]
  binding (fluorescence polarization): no binding

## Ac-PHYIQRTRERKKEIGSQRGRRLEMLASGSAW-NH2 [Dsn1^228-254,S240E,S250E]
[4]; ratio of ITC KD values, S240E,S250E peptide versus wild-type Dsn1^228–254
  decrease of affinity versus wild-type peptide: fivefold
[4]; read-out: KD (ITC) of phosphomimetic Dsn1 peptide, ITC, 25°C, 25 mM HEPES pH 7.5, 100 mM NaCl, 1 mM TCEP, syringe 0.35 mM, cell 0.025 mM, average from two experiments (technical repeats)
  Kd: 6000 nM

B1: CENP-U^Ame1_1–33 peptide (residues 1–33 of CENP-U^Ame1) (peptide)
peptide: MDRDTKLAFRLRGSHSRRTDDIDDDVIVFKTPNW-NH2
notes: CENP-U^Ame1, S. cerevisiae, residues 1-33; added C-terminal tryptophan after residue 33 (so in the source); source: synthetic peptide (Alta BioScience)
[5]
  Kd: 240 nM

B2: CENP-U^Ame1_1-33-Mut peptide (CENP-U^Ame1_1-33 with Ala substitutions) (peptide)
peptide: MDRDTKLAFRLRGSHSRRTDDIDDAAAVAKAPNW-NH2
notes: CENP-U^Ame1, S. cerevisiae, residues 1-33 with five Ala substitutions; added C-terminal tryptophan after residue 33 (so in the source); also called CENP-U^Ame1_1-33 mutant; source: synthetic peptide (Alta BioScience)
[5]
  Kd: 1310 nM

B3: Isolated Mis12c^Mtw1c, full-length and wild-type proteins (Dsn1, Nsl1, Mis12^Mtw1, Nnf1) (complex, S. cerevisiae)
chain 1: MSLEPTQTVSGTPPMLHQRTHKQVYPLRMETIPILESDSKATLQSNEPTQKDEEETEYFENKQSVSNLSPDLKFKRHKNKHIQGFPTLGERLDNLQDIKKAKRVENFNSSAPIADDNHSGDATANATANATANATANVNASAMPAPYMPYYYYYHPMNAPTPAMIPYPGSPMHSIMPNSSLQPFYSQPTAAGGPDMTTPQNISSSQQLLPAPQLFPYGSFHQQQLQQPHYIQRTRERKKSIGSQRGRRLSMLASQANGGSTIISPHKDIPEEDFYTVVGNASFGKNLQIRQLFNWCLMRSLHKLELKAKNQEEEGELEHLTKKSKLESTKAETDYVDPKRLAMVIIKEFVDDLKKDHIAIDWEDEEKYEDEDEEKILDNTENYDDTELRQLFQENDDDDDDDDEVDYSEIQRSRRKFSERRKALPKEPKKLLPNSKNVENTKNLSILTSKVNAIKNEVKEWAVTLDTSRPDLEWQELTSFSSQPLEPLSDTEEPDLAIADVETKLETKVDELRYQSHILNSHSLALNEITNSKVNKLNIETMRKISSETDDDHSQVINPQQLLKGLSLSFSKKLDL
chain 2: MSQGQSKKLDVTVEQLRSIYHQFHDILEEKTDLHLPKKEYDDDAVRREVQIQLQEFLLSAMTMASKSLEVVNADTVGKTVKQLIMESQEKYMEPFDLDLNEQVRKMYQEWEDETVKVAQLRQTGPAKINEVYNNSKDEYLAQLDGRIGVLQARMMQQQSADHDDSTDDADDHINWEHIKQDYVASLNELYQTQQDLPKVRYNVEKVKRLMDFLEED
chain 3: MSAPTMRSTSILTEHLGYPPISLVDDIINAVNEIMYKCTAAMEKYLLSKSKIGEEDYGEEIKSGVAKLESLLENSVDKNFDKLELYVLRNVLRIPEEYLDANVFRLENQKDLVIVDENELKKSEEKLREKVNDVELAFKKNEMLLKRVTKVKRLLFTIRGFKQKLNELLKCKDDVQLQKILESLKPIDDTMTLLTDSLRKLYVDSESTSSTEEVEALLQRLKTNGKQNNKDFRTRYIDIRTNNVLRKLGLLGDKEDEKQSAKPDARTQAGDIVSIDIEEPQLDLLDDVL
chain 4: MVNSHGIRYIRLKQVFNRALDQSISKLQSWDKVSSCFPQYVNSKQGAINVANCQRQLTEFWTELCQREFKEIMEERNVEQKLNELDELILEAKERYTDRDQDEVNKGPAIDELSSKELVECHLYSQRMHAIHEIDERLAKVNEMNDQLAQELKDLETQVEVEKNEIGKMYDEYLGSHTDQPANVLLVQSLNDMVLELKENY
notes: Dsn1, S. cerevisiae S288c; Nsl1, S. cerevisiae S288c; Mis12^Mtw1, S. cerevisiae S288c; Nnf1, S. cerevisiae S288c; source: High-5 insect cells (two baculoviruses), purified (Strep-Tactin, SEC); copies: + + +
[6]
  binding result: binds

B4: Mis12c^Mtw1c_Mis12ΔC-Nnf1ΔC (isolated Mis12c^Mtw1c with Mis12^Mtw1 residues 272–289 and Nnf1 residues 180–201 deleted) (complex, S. cerevisiae)
chain 1: B3 chain 1
chain 2: B3 chain 2
chain 3: MSAPTMRSTSILTEHLGYPPISLVDDIINAVNEIMYKCTAAMEKYLLSKSKIGEEDYGEEIKSGVAKLESLLENSVDKNFDKLELYVLRNVLRIPEEYLDANVFRLENQKDLVIVDENELKKSEEKLREKVNDVELAFKKNEMLLKRVTKVKRLLFTIRGFKQKLNELLKCKDDVQLQKILESLKPIDDTMTLLTDSLRKLYVDSESTSSTEEVEALLQRLKTNGKQNNKDFRTRYIDIRTNNVLRKLGLLGDKEDEKQSAKPDARTQAGD
chain 4: MVNSHGIRYIRLKQVFNRALDQSISKLQSWDKVSSCFPQYVNSKQGAINVANCQRQLTEFWTELCQREFKEIMEERNVEQKLNELDELILEAKERYTDRDQDEVNKGPAIDELSSKELVECHLYSQRMHAIHEIDERLAKVNEMNDQLAQELKDLETQVEVEKNEIGKMYDEYLGSHTD
notes: Dsn1, S. cerevisiae S288c; Nsl1, S. cerevisiae S288c; Nnf1^Δ180-C: Nnf1, S. cerevisiae S288c, residues 180-201 deleted; source: High-5 insect cells (two baculoviruses), purified (Strep-Tactin, SEC); copies: + + +
[6]
  binding result: binds

B5: Mis12c^Mtw1c_Nnf1ΔC (isolated Mis12c^Mtw1c with Nnf1 residues 180–201 deleted) (complex, S. cerevisiae)
chain 1: B3 chain 1
chain 2: B3 chain 2
chain 3: B3 chain 3
chain 4: B4 chain 4
notes: Dsn1, S. cerevisiae S288c; Nsl1, S. cerevisiae S288c; Mis12^Mtw1, S. cerevisiae S288c; Nnf1^Δ180-C: Nnf1, S. cerevisiae S288c, residues 180-201 deleted; also called Nnf1^Δ180-C; source: High-5 insect cells (two baculoviruses), purified (Strep-Tactin, SEC); copies: + + +
[6]
  binding result: binds

B6: Mis12c^Mtw1c_Mis12ΔC (isolated Mis12c^Mtw1c with Mis12^Mtw1 residues 272–289 deleted) (complex, S. cerevisiae)
chain 1: B3 chain 1
chain 2: B3 chain 2
chain 3: B4 chain 3
chain 4: B3 chain 4
notes: Dsn1, S. cerevisiae S288c; Nsl1, S. cerevisiae S288c; Nnf1, S. cerevisiae S288c; also called Mis12^Mtw1_Δ272-C; source: High-5 insect cells (two baculoviruses), purified (Strep-Tactin, SEC); copies: + + +
[6]
  binding result: binds

B7: CENP-C^Mif2_1–38 peptide (N-terminal 38 residues of CENP-C^Mif2) (peptide)
peptide: MDYMKLGLKSRKTGIDVKQDIPKDEYSMENIDDFFKDD-NH2
notes: CENP-C^Mif2, S. cerevisiae, residues 1-38; source: synthetic peptide (Alta BioScience)
[5]
  Kd: 980 nM

From publication PMC13065467, “Assembly and phosphoregulatory mechanisms of the budding yeast outer kinetochore KMN complex” (The Journal of Cell Biology, 2026)
